Data as given in article PMC3524506.

Tested on: OmpR-P-His6 (phosphorylated) (Yersinia enterocolitica O9 Ye9?)
Assay: EMSA
Conditions: 40 mM Tris-HCl pH 8.0, 100 mM KCl, 10 mM MgCl2, 5% glycerol, room temperature 30 min, scale: fold lower minimum binding amount than non-phosphorylated OmpR

inv promoter fragment 553 bp
binding signal: 3
